Assay results reported in patent publication US20210309707A1 (Stanford University, published 2021).

Target: T1, interferon-gamma receptor subunit 2 (IFN-γR2) (UniProt P38484 28-247, limits assumed)
T1 construct: Soluble purified protein (crystallised; analyte in SPR)
T1 sequence (looked up): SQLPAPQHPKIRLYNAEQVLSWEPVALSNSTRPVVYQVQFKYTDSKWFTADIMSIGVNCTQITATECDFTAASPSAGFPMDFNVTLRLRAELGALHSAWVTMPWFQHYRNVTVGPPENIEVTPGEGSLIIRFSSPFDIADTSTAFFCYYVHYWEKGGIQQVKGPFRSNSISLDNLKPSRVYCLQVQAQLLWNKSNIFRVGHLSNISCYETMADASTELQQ
Assay: SPR (Biacore T100, equilibrium); IFN-γR2 dilutions over captured IFN-γR1 in the presence of 50 nM mutant IFN-γ
Protocol: The structure of the IFN-γ signaling complex as described in Example 2 above provided opportunities to address new questions to further understand IFN-γ signaling and activity. By identifying the shared interactions, previously unknown, at sites IIa/IIb, one now can better understand IFN-γ signaling at each step of complex formation. Since IFN-γ is a dimeric cytokine driving the dimerization of four receptors, further experiments were performed to design and generate variants of IFN-γ to affect one or more of the different signaling intermediates. The design of the partial agonists was achieved by first engineering a version of IFN-γ that abolished binding to IFN-γR2 receptor. Based on the structure described in Example 2, a triple IFN-γ mutant having three amino acid substitutions K74A, E75Y, and N83R (See FIG. 3A) was designed and validated for the loss of measurable binding to IFN-γR2 as determined by surface plasmon resonance (FIGS. 3B-3D). Without being bound to any particular theory, several other mutations or combinations thereof of the IFN-γR2 binding site amino acids of IFN-γ as indicated in the crystal structure (FIG. 2), either alone or in combination with mutations within the IFN-γR1 binding site, could also result in similar effects on IFN-γR2 binding. […]

B1: triple IFN-γ mutant having three amino acid substitutions K74A, E75Y, and N83R (ligand)
chain: QDPYVKEAENLKKYFNAGHSDVADNGTLFLGILKNWKEESDRKIMQSQIVSFYFKLFKNFKDDQSIQKSVETIAYDMNVKFFRSNKKKRDDFEKLTNYSVTDLNVQRKAIHELIQVMAELSPAAKTGKRKRSQ
notes: also called IFN-γ (K74A/E75Y/N75R); IFN-γK74A/E75Y/N83A
B1: no binding.
